Measurements from patent publication US20200188434A1, “A CELL COMPRISING A CHIMERIC ANTIGEN RECEPTOR (CAR)” (AUTOLUS LIMITED, priority 2017, published 2020).

Legend:
[1] = molecular target: membrane tethering component (v5-CD22(2Ig)-TM-FRB) (human); experiment: cell-based or functional assay
[2] = molecular target: streptavidin (Streptomyces avidinii, UniProt P22629); conditions: biotin mimicking peptides binding streptavidin; read-out: affinity; cited from earlier work
[3] = tested on: SKOV3_BCMA cells; conditions: 72 hour time point; T cells expressing CAR, membrane tethering component and signal dampening component
Procedure: FIG. 13—A: Results of an Incucyte assay comparing killing of BCMA+ SKOV3 target cells over time in the presence of varying concentrations of rapamycin by T cells expressing an anti-BCMA CAR alone (Left-hand chart) or expressing an anti-BCMA CAR in combination with a membrane tethering component (v5-CD22(2Ig)-TM-FRB) and a signal dampening component (FKBP12-CD148).
B: A summary of the data presented in A at the 72 hour time-point.
SKOV3 cells, were engineered to be BCMA positive for use as target cells. Primary human T-cells from 2 donors were transduced with two CAR constructs: (i) “Classical” anti-BCMA CAR; (ii) the tri-cistronic “dampenable” BCMA CAR system described above, Non-transduced T-cells and T-cells transduced with the different CAR constructs were challenged 8:1 with SKOV3_BCMA cells in the presence of different concentrations of rapamycin and target cell killing was investigated using an incucyte assay.

Chain of streptavidin (P22629 37-163): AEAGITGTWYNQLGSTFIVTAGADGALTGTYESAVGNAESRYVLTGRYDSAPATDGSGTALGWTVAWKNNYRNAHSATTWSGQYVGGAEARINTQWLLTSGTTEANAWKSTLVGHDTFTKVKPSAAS
Chain of membrane tethering component (v5-CD22(2Ig)-TM-FRB) (human) (chain, as listed by the source): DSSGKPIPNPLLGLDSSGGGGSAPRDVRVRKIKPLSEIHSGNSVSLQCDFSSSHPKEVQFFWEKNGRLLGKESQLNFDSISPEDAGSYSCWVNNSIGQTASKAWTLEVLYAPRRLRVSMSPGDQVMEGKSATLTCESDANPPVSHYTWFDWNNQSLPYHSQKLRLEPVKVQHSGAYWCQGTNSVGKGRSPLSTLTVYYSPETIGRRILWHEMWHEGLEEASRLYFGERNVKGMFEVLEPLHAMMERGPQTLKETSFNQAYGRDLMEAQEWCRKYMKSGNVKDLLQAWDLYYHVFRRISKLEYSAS

signal dampening component (FKBP12-CD148)
killing of BCMA+ SKOV3 target cells at the 72 hour time point (incucyte assay); rapamycin concentration above which killing was inhibited [1]: > 0.82 µM
target cells surviving at 50 hours (incucyte assay), T cells co-expressing the CAR with a dampener, with rapamycin [1]: 50%

Biotin mimicking peptide, sequence CHPQGPPC (SEQ ID NO: 41) (Biotin mimicking peptide, ccstreptag)
Kd [2]: 230 nM

Biotin mimicking peptide, sequence DVEAWLDERVPLVET (SEQ ID NO: 36) (Biotin mimicking peptide, long nanotag)
Kd [2]: 3.6 nM

CO[C@H]1C[C@@H]2CC[C@@H](C)[C@@](O)(O2)C(=O)C(=O)N2CCCC[C@H]2C(=O)O[C@H]([C@H](C)C[C@@H]2CC[C@@H](O)[C@H](OC)C2)CC(=O)[C@H](C)/C=C(\C)[C@@H](O)[C@@H](OC)C(=O)[C@H](C)C[C@H](C)/C=C/C=C/C=C/1C [Rapamycin, rapamycin]
tested concentrations of Rapamycin at which killing of target cells was significantly inhibited [3]: above 0.82 μM

Biotin mimicking peptide, sequence WSHPQFEK (SEQ ID NO: 39) [streptagII]
Kd [2]: 72000 nM

Biotin mimicking peptide, sequence DVEAWLGAR (SEQ ID NO: 37) (Biotin mimicking peptide, short nanotag)
Kd [2]: 17 nM
